Measured values published in publication PMC6971037, “Molecular basis for histidine N3-specific methylation of actin H73 by SETD3” (Cell Discovery, 2020).

What was measured:
[1] = biological target: T1, SETD3 residues 20–494 (as labelled for the ITC titrations) (human, UniProt Q86TU7 20-494); assay: ITC; SETD3 titrated with actin peptide in the presence of SAH; settings: both partners purified
T1 construct: also called SETD3_(20–494)
T1 sequence (looked up): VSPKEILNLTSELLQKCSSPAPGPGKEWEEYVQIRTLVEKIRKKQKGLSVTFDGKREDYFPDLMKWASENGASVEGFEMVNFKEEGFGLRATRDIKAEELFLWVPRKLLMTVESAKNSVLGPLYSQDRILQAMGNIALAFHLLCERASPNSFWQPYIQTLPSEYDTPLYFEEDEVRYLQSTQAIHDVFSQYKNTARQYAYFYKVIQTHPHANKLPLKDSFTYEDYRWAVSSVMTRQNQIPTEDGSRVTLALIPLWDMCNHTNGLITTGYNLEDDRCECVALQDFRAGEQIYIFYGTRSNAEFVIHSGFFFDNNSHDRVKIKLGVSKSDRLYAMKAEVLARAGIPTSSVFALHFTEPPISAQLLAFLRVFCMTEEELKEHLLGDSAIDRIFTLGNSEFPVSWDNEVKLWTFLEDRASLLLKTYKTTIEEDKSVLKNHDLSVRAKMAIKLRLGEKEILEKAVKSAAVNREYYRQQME

[2] = biological target: T1, SETD3 residues 20–494 (as labelled for …); assay: ITC; SETD3 titrated with actin peptide in the presence of SFG (sinefungin); settings: both partners purified

B1: β-actin peptide (60–81) (peptide, UniProt P60709 60-81, looked up)
peptide: SKRGILTLKYPIEHGIVTNWDD
notes: β-actin, residues 60-81; residues 66-81 were built in the structure; also called wild-type actin peptide
[1]
  Kd: 150 nM
[2]
  Kd: 5010 nM

B2: H73A mutant actin peptide (peptide, UniProt P60709 60-81, looked up)
peptide: SKRGILTLKYPIEAGIVTNWDD
notes: β-actin peptide with H73A; The limits 60-81 are those of the wild-type peptide; also called H73A actin peptide; H73A mutant peptide
[1]
  Kd: 810 nM
[2]
  Kd: 1000 nM
